Laboratory results from the supplement of paper PMC9170038.

Tested on: MS2 coat protein
Assay: apparent KD of MS2 coat protein; designed switch direction (-1 OFF switch, 1 ON switch): -1; higher = weaker reporter binding
How it was run: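 Designed RNA switches were transcribed on Illumina chips by stalled E. coli RNA polymerase and titrated with SNAP-549-labelled MS2 coat protein from 0.7 or 1.5 nM, doubling to 3 µM. Step length ran from 0.8–1.5 h at the lowest concentration to 10–20 min at the highest. The apparent KD is the median over clusters for each design, from curve-fitted normalised cluster fluorescence.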

[1] = input ligand: microRNA oligo, concentration not stated
[2] = Eterna round: R95, input ligand: microRNA oligo, concentration not stated

UUCUUGCGCGUGAGGAUAUGCUGAUCCCAGGAUUAGCAGAAGGCACAUGAGGAUCACCCAUGUCCAACUUGUCU [LRO-BmodExc4-15- Bluer = mod of Colors by Tatyana Zabanova] (Eterna round: R97, puzzle: Brourd's mod of Exclusion 4)
apparent KD of MS2 coat protein (input ligand: FMN 200 uM): 0.0514 µM | apparent KD of MS2 coat protein (input ligand: none): 0.0386 µM

GUCAGCUCGUGAGGAUAUGAACAUGAGGAUCACCCAUGUAAGAUCAAGCUGCUUCGGCAGCAAGUUCAGAAGGUACGAGCUGAU [ENG2/10-C2] (Eterna round: R96, puzzle: Exclusion NG 2)
apparent KD of MS2 coat protein (input ligand: FMN 200 uM): 0.243 µM | apparent KD of MS2 coat protein [1]: 0.0933 µM | apparent KD of MS2 coat protein (input ligand: none): 0.122 µM

UUUGUAUAGGUAGGAUAUACUUUCAAUUUUUUUUUCCUUACAUGAGGAUCACCCAUGUUUACAUUGUAGAAGGACCUCAUUGUU [JR_ExcNG2_Sub049] (Eterna round: R96, puzzle: Exclusion NG 2)
apparent KD of MS2 coat protein [1]: 0.325 µM

UUUUCUUUUGUGAGGAUAUACUUGUUUUUUUUUUUGUAGAAGGCACAUGAGGAUCACCCAUGUACUCUUUCCUG [JR_BME4_Sub024] (puzzle: Brourd's mod of Exclusion 4)
apparent KD of MS2 coat protein [2]: 0.0201 µM

UGUUUAUAUGAAGGAUAUACUUAACAUGAGGAUCACCCAUGUGGUGUUGUGAGUGAGUGAGUUUAGUAGAAGGUCAAUUCUUUU [JMF's solution 97] (Eterna round: R96, puzzle: Exclusion NG 2)
apparent KD of MS2 coat protein (input ligand: FMN 200 uM): 0.996 µM | apparent KD of MS2 coat protein [1]: 0.553 µM | apparent KD of MS2 coat protein (input ligand: none): 0.425 µM

ACGCUAUGAGGAUAUACAUGAGGAUCACCCAUGUCCCGAUGGUGUUUCCAUUGGAGACGUAGAAGGUAUGGUUA [Eternabot (L2) Solution 13] (Eterna round: R97, puzzle: Exclusion 3)
apparent KD of MS2 coat protein (input ligand: FMN 200 uM): 0.169 µM | apparent KD of MS2 coat protein (input ligand: none): 0.172 µM

GGCAUCGGAGGAUAUACUUAUGGUGAUACCCGAAGCUUUCUACUUGAGGAUCACCCAAGUAGAAGGCCGAUGCC [jl-ex2.4.81 ViennaUCT mod] (Eterna round: R97, puzzle: Exclusion 2)
apparent KD of MS2 coat protein (input ligand: FMN 200 uM): 0.0117 µM | apparent KD of MS2 coat protein (input ligand: none): 0.0126 µM

CCAGGCAGUGUGAGGAUAUGCUGGUGGAUACAUCAGCAGAAGGCACAUGAGGAUCACCCAUGUGAAGAGCUUGG [Mat - Exclusion 4 - JL Mod - D99] (puzzle: Brourd's mod of Exclusion 4)
apparent KD of MS2 coat protein (Eterna round: R95, input ligand: FMN 200 uM): 0.136 µM | apparent KD of MS2 coat protein [2]: 0.019 µM | apparent KD of MS2 coat protein (Eterna round: R95, input ligand: none): 0.0205 µM

AAUAACAAGCAGAUCCUAAACAUGAGGAUCACCCAUGUGCGCGUCUUGUAAAGUACUAUCACGAAAGUGAUAGUACA (Eterna round: R97, puzzle: Sensor, turn-off variant 1)
apparent KD of MS2 coat protein (input ligand: FMN 200 uM): 0.19 µM | apparent KD of MS2 coat protein (input ligand: none): 0.133 µM

AUAAUGUCAGGAUAUCGAGACUACUGCCUCGGCAGUAGUCUCGAGAAGGGACAUGAGGAUCACCCAUGUGAUCA [E4/1-A2] (Eterna round: R97, puzzle: Exclusion 4)
apparent KD of MS2 coat protein (input ligand: FMN 200 uM): 0.831 µM | apparent KD of MS2 coat protein (input ligand: none): 0.0452 µM

ACGUGAGCUGAGGAUAUGCCACUAGCCCGCCUGGCAGAAGGCAGUACAUGAGGAUCACCCAUGUGCGUUGGGUG [Leintice] (Eterna round: R97, puzzle: Exclusion 6)
apparent KD of MS2 coat protein (input ligand: FMN 200 uM): 0.334 µM | apparent KD of MS2 coat protein (input ligand: none): 0.335 µM

AGCUGUGGCCGAGGAUAUCUACAUGAGGAUCACCCAUGUGGGUGAAAUAUCGGGAAAACCUCGAUGGAGAAGGCGGUCUCAGCA [Eli eng2 - 046] (Eterna round: R96, puzzle: Exclusion NG 2)
apparent KD of MS2 coat protein (input ligand: FMN 200 uM): 0.849 µM | apparent KD of MS2 coat protein [1]: 0.234 µM | apparent KD of MS2 coat protein (input ligand: none): 0.263 µM
